The text below walks through data of patent US20060286117A1, “Neuronally expressed stem cell factor modulates angiogenesis and neural stem cell migration to areas of brain injury” (priority 2003, published 2006).

Assay [1] concerns SCID mice. Kind of assay: In vivo angiogenesis assay, subcutaneous Matrigel plugs with SCF or β-FGF. Also noted: species or system mouse. Conditions: subcutaneous Matrigel in adult SCID mice, fourteen days after injection. As to the method: Confluent-grown ECs were treated with 50 ng/ml of SCF for 5, 10, 15, and 30 min after 24 hr of serum starvation. The ECs were collected with RIPA lysis buffer (Upstate, Charlottesville, Va.) containing 50 mM NaF, 1 mM Na3VO4, […], and Protease Inhibitor Cocktail (Roche). The antibodies were purchased from Cell Signaling Technology, Inc. (Beverly, Mass.) or as mentioned otherwise. All the primary antibodies were used in a 1:1000 dilution except for the anti-SCF antibody, which was used in a 1:2000 dilution. The primary antibodies were anti-phospho-c-Kit, anti-phospho-MEK1/2 and anti-MEK1/2, anti-phospho-p44/42 MAPK and anti-p44/42 MAPK, anti-phospho-SAPK/JNK and anti-SAPK/JNK, anti-phospho-p38 MAPK and anti-p38 MAPK, anti-phospho-Akt and anti-Akt, anti-phospho-mTOR and anti-mTOR, anti-phospho-4E-BP1 and anti-4E-BP1, anti-SCF and anti-VEGF (Chemicon, Temecula, Calif.), and anti-β-tubulin (Sigma). Re-blotting was done after membranes were stripped by re-blot kit (Chemicon). Tie2 detection in Matrigel plugs from the in vivo Matrigel assay was carried out by immunoprecipitation and immunoblotting. The gel plugs were carefully separated from muscle and skin and homogenized with RIPA lysis buffer. The resulting total tissue lysates ([…]) were immunoprecipitated with Tie2 antibody (Santa Cruz Biotechnology, Inc., Santa Cruz, Calif.) and then analyzed by immunoblot with Tie2 antibody (Zadeh et al. 2004 Am J Pathol 162:467-476).
All adult mice (6-8 weeks of age) were from NCI-Fredrick, and the animal experiments were conducted on an animal experimentation protocol approved by the NCI's animal protection committee (the “ACUC”). […]

The next assay relates to U251 glioma. Kind of assay: Subcutaneously implanted U251 human glioma growth. The class given is in vivo, mouse. To be noted: nude mice.
For assay [2], the target named is mouse c-Kit (SCF receptor) on mouse NSPCs (mouse) (UniProt P05532). Kind of assay: cell-based or functional assay.
Chain of mouse c-Kit (SCF receptor) on mouse NSPCs (mouse) (P05532 25-979): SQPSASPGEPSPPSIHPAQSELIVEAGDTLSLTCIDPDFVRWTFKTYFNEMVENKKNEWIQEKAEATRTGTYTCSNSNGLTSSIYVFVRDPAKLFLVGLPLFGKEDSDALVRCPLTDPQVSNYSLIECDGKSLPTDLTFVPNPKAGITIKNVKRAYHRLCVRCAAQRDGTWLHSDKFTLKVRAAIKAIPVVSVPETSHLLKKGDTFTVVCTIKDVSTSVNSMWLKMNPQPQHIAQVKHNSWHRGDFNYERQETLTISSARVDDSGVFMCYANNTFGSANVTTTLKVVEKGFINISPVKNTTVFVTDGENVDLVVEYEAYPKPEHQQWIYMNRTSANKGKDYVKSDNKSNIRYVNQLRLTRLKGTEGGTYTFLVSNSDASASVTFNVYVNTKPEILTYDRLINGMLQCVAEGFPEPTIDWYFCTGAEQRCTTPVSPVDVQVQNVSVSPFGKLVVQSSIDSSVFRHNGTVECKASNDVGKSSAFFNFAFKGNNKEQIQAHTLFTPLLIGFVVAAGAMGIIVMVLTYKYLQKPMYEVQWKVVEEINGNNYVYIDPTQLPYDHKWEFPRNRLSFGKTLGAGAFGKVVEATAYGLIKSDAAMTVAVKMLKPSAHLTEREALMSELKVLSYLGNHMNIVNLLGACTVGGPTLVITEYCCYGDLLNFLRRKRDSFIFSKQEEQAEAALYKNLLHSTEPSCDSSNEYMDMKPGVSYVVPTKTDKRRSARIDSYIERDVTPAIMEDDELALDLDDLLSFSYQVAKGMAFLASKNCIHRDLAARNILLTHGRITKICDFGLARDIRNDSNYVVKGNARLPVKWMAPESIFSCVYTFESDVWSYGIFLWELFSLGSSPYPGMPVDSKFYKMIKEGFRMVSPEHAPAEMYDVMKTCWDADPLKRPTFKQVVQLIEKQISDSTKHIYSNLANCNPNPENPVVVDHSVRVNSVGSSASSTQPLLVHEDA
For assay [3], the target named is human c-Kit (SCF receptor) on human cells (NSPCs, HUVEC, HBMEC) (human) (UniProt P10721). The assay is described as follows: cell-based or functional assay.
The target in assay [4] is T1, c-Kit (Homo sapiens, UniProt P10721).
T1 construct: The 120-kDa and 140-kDa bands represent the c-Kit proteins in the human and mouse NSPCs; endogenous in cells; host or cells: human fetal NSPCs (neurospheres)
The assay is described as follows: c-Kit tyrosine phosphorylation by immunoprecipitation and immunoblot, human NSPCs. To be noted: 100 ng/ml of rmSCF, 10 min. The class given is cell-based. As to the method:
(§1) Injured dorsal forebrains were dissected 24 hours, 3 days, 5 days, 7 days and 12 days after injury and were homogenized in a lysis buffer containing 50 mM Tris-HCl (pH 8.0), 120 mM NaCl, 0.5% Nonidet P-40, and Protease Inhibitor Cocktail (Roche, Indianapolis, Ind., USA). Brain tissue was kept on ice for 30 min and supernatants were collected after centrifugation. The brain lysates were separated by a 4-12% polyacrylamide gel electrophoresis (Invitrogen) and transferred to the membranes. The filters were blotted with rabbit polyclonal anti-SCF antibody (1:50 dilution; Chemicon, Temecula, Calif., USA). The NSPCs were treated or not treated with 100 ng/ml of rmSCF or were left untreated for 10 min and then were washed with ice-cold PBS. Some mouse NSPCs were treated with rat monoclonal c-Kit blocking antibody, (ACK4; PharMingen, San Diego, Calif., USA) for 30 min at room temperature before SCF stimulation. The NSPCs were resuspended in a protease inhibitor mixture containing radioimmunoprecipitation (RIPA) buffer (1% NP-40, 0.5% Sodium deoxycholate, 0.1% SDS, 0.1 mg/ml PMSF, 0.1 mM NaVO4 in PBS). The cell lysates were pre-cleared with protein A-Sepharose (Amersham Pharmacia Biotech, Piscataway, N.J., USA), incubated with rabbit polyclonal antibody to c-Kit (Clone H-300, Santa Cruz, San Diego, Calif., USA), and collected on protein A-Sepharose beads. […]

Assay [5] deals with T2, c-Kit (Mus musculus, UniProt P05532).
T2 construct: The 120-kDa and 140-kDa bands represent the c-Kit proteins in the human and mouse NSPCs; endogenous in cells; host or cells: mouse E14 NSPCs (neurospheres)
T2 sequence (P05532 25-979): as above
The assay is described as follows: c-Kit tyrosine phosphorylation by immunoprecipitation and immunoblot, mouse NSPCs. Type of assay: cell-based. To be noted: 100 ng/ml of rmSCF, 10 min. How it is done: as §1
On the technique in general: A western blot detects proteins with antibodies after separation by electrophoresis.

Assay [6] concerns SCID mice. Kind of assay: In vivo angiogenesis assay, matrigel plug with rmSCF (Example 3). To be noted: rmSCF 50 ng/ml, subcutaneous, 7 days, vs PBS control. Set-up: species or system mouse. How it is done:
Recombinant mouse SCF (rmSCF) was used at 50 ng/ml in an in vivo angiogenesis assay. The matrigel plug containing SCF or PBS control was placed subcutaneously in SCID mice for 7 days, and the blood vessel formation within the gel was examined by H&E staining. […] In the higher magnification figure on the right side, the red blood cells inside of the newly formed vessel are indicated by an arrow.

Another assay concerns NIH 3T3 cells. Kind of assay: Boyden chamber migration assay, NIH 3T3 negative control cells. To be noted: regardless of the concentration used. The class given is cell-based. As to the method:
(§2) The effects of SCF on NSPC migration were determined by a modified Boyden chamber assay as described previously (Sun, L. et al. 2001 Cancer Res. 61:4994-5001). A 96-well cell migration kit was utilized (Chemicon, Temecula, Calif., USA) and each well was separated into two chambers by a membrane with 8-μm pores. The cells were briefly trypsinized and adjusted to 4×10^5 cells/ml in 1:20 dilution of B27 medium without growth factors. Some cells were pretreated with a c-Kit-blocking antibody (ACK45, PharMingen, San Diego, Calif., USA) for 30 min at room temperature. Migration of NIH 3T3 cell was also assayed as a control. Recombinant mouse SCF (rmSCF) (R&D systems, Minneapolis, Minn., USA) was dissolved in the same medium and adjusted to the various concentrations. After different concentrations of SCF or brain tissue lysates were added to the lower chamber as attractants, 100 μl of the NSPCs (4×10^4) were applied to the upper chamber on the top of membrane. A group of control chambers without rmSCF was also included. After 4 hours of incubation at 37° C., the migratory cells on the bottom of the insert membrane were dissociated from the membrane by incubation with cell detachment buffer.

A further assay deals with bMVEC-B cells. Kind of assay: bMVEC-B DNA synthesis by thymidine incorporation (Example 3). Type of assay: cell-based. To be noted: 72 hours. As to the method: To specifically confirm the pro-angiogenic effects of SCF in the brain, bMVEC-B cells were used. The cells were cultured in the presence of different concentrations of rmSCF (1 ng/ml to 250 ng/ml) or 0.1% BSA only medium for 72 hours. The rate of DNA synthesis was measured by thymidine incorporation.
(In general: Dividing cells build labelled thymidine or BrdU into new DNA.)

The subject of another assay is human NSPCs. Kind of assay: Boyden chamber migration assay, human NSPCs. Type of assay: cell-based. As to the method:
as §2

Another assay deals with mouse NSPCs. Kind of assay: Boyden chamber migration assay, mouse NSPCs. Type of assay: cell-based. How it is done:
as §2

For the next assay, the system named is endogenous NSPCs. The assay is described as follows: In vivo progenitor cell migration, BrdU labeling and intracerebral rmSCF injection. Also noted: species or system mouse.
Where [7] appears, read: rmSCF 3 μg intracerebral, day 7, SCID mice.

Entries after “also recorded” stand apart in the source; their conditions may differ.

Regarding “β-FGF: positive control angiogenic growth factor (R&D Systems) [reference compound]”, the “angiogenesis in Matrigel plug (H&E, vWF-positive vessels)” value in the assay with SCID mice [1] is “high density of blood vessels; also recorded: induced substantial angiogenesis”.

As for “bevacizumab: VEGF antibody (Genentech), systemically administered”, the subcutaneous tumor growth entry in the assay on U251 glioma was “suppressed subcutaneously implanted human glioma growth; also recorded: profound tumor growth suppression”.

For “Recombinant mouse SCF (rmSCF) (from UniProt P20826 26-189) (ligand)”, the values for the lowest rmSCF concentration with a statistically significant increase in NSPC migration (Boyden chamber) in [2] and in assay [3] were 5 ng/mL and 10 ng/mL, respectively.

B1: rmSCF: Recombinant mouse SCF (rmSCF) (R&D systems) (protein)
chain: KEICGNPVTDNVKDITKLVANLPNDYMITLNYVAGMDVLPSHCWLRDMVIQLSLSLTTLLDKFSNISEGLSNYSIIDKLGKIVDDLVLCMEENAPKNIKESPKRPETRSFTPEEFFSIFNRSIDAFKDFMVASDTSDCVLSSTLGPEKDSRVSVTKPFMLPPVA
On to B1, for which the “c-Kit tyrosine phosphorylation following SCF stimulation” value with c-Kit [4] and in the assay with c-Kit [5] was “strongly phosphorylated” throughout. Moreover, in the assay with SCID mice [6], the “blood vessel formation within the matrigel plug (H&E)” value is “obviously abundant”. Also, the “migration of NIH 3T3 cells” value in the assay on NIH 3T3 cells is recorded as “did not induce migration”. The “lowest concentration at which bMVEC-B responded to SCF stimulation” value with bMVEC-B cells is 1 ng/mL. In addition, in the assay with bMVEC-B cells (rmSCF 1 ng/ml to 250 ng/ml), the “bMVEC-B DNA synthesis (thymidine incorporation)” value is reported as “strongly stimulated bMVEC-B DNA synthesis”. In addition, the “lowest SCF concentration with statistically significant increase in cell migration” value came out at 10 ng/mL with human NSPCs and 5 ng/mL with mouse NSPCs. Also, the NSPC migration entry in the assay with human NSPCs (rmSCF 5-500 ng/ml, 4 hours) was “stimulated in a dose-dependent manner; also recorded: significant chemoattractive effect on NSPC in a dose dependent manner”; with mouse NSPCs (rmSCF 5-500 ng/ml, 4 hours), “stimulated in a dose-dependent manner; also recorded: significant chemoattractive effect on NSPC in a dose dependent manner”. Further, the “number of BrdU-positive cells in SCF-injected area (1.5-mm^2 section) compared to the contralateral side” value in the assay with endogenous NSPCs (setting [7]) is listed as “approximately twice”. In the assay with endogenous NSPCs (setting [7]), the “number of BrdU-positive cells in injected area, SCF-treated compared to PBS-treated animals” value was found to be 2.3 times. Also, the “BrdU-positive cells in the SCF-injected area” value with endogenous NSPCs (vs contralateral side and PBS-injected animals, day 7) is “significant numbers of BrdU-positive cells”.
